Reference: patent US20210347867A1

Molecular target: amyloid peptide (not named; Aβ1-42, AβpE3-42 and 4-42 were tested)
Experiment: SPR (Biacore); reference not named (variants were made to raise the affinity of RHS71/RKA)

- fold improvement on the Biacore: 2 fold
B1: humanized NT4X-167 RHS71/RKH (antibody, V domains shown)
VH: QVQLQESGPGLVKPSETLSLTCTVSGFSLSSYGIHWIRQPPGKGLEWIGVMWSGGITNYYPSLKSRVTISRDTSKNQVSLKLSSVTAADTAVYYCARGSRYALDYWGQGTLVTVSS
VL: DIQMTQSPSSLSASVGDRVTITCRASQDISNYLNWYQQKPGKAPKLLIYYTSRLHSGVPSRFSGSGSGTDFTLTISSLQPEDFATYYCQQGHTLPPTFGGGTKLEIK
